We go through one substance from paper PMC8476707.

This assay addresses empty AAV8 capsid (recombinant adeno-associated virus serotype 8, no genome) (adeno-associated virus 8 (AAV8)) (UniProt Q8JQF8). The experiment in a line: native MS; charge detection mass spectrometry (CDMS) of single ions; nanoelectrospray from 200 mM ammonium acetate pH 7.5 after exchange on Micro Bio-Spin columns; 100 ms trapping time; charge versus mass scatterplot; capsid with capsid (multimers of whole particles).

Where “and” joins values, the source holds several entries; their conditions need not be identical. Identical values can stand only once.

A word on the stoichiometry N: it is a count of units in the complex or per binding partner.

For “empty AAV8 capsid (recombinant adeno-associated virus serotype 8, no genome) (from UniProt Q8JQF8 1-738) (complex)”, the percent of ions that are capsid dimers was determined as 3.8%; the percent of ions that are capsid trimers was found to be 0.8%; the stoichiometry N is 2 and 3.
